In US20250282870A1 (BIOENTRE, published 2025):
Values belong to the binder of their own block, whether it stands above or below them.

Tests used:
[1] = molecular target: T1, human CTLA4 expressed on Jurkat T cells (CTLA4 effector cells) (human, UniProt P16410 36-223); test: cell-based or functional assay
T1 sequence (looked up): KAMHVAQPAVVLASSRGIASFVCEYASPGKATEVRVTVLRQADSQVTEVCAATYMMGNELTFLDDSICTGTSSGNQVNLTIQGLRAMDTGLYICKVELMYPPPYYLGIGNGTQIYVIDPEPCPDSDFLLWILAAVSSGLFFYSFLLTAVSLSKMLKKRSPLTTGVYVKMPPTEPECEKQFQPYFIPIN

[2] = molecular target: FcγRII (CD32) expressed on Raji cells; test: cell-based or functional assay

activity titration curve, CTLA4 blockade assay, against 26 HuIgG1 [1]: > 2 fold of 26 HuIgG1
B1: 26 F(ab')2 (synthetic) (other)
VH: QVQLKESGPGLVAPSQSLSITCTVSGFSLTSYGVYWVRQPPGKGLEWLGVIWAGGTTNYNSALMSRLSISKDNSKSQVFLKMSSLQTDDTAMYYCARGPPHAMMKRGYAMDYWGQGTSVIVSS
VL: QNVLTQSPAIMPASPGEKVTMTCSATSSITYMSWYQQKSGSSPRLLIYDTSNLASGVPVRFSGSGSGTSYSLTISRMEAEDAATYYCQQWSSYPLTFGAGTKLELK

RLU ratio of the CTLA4 blockade assay with anti-CD32 antibody at 10 µg per ml [2]: ~50%
B2: 26 HuIgG1 (chimeric antibody: VH and VL of mouse antibody 26 on a human IgG1 scaffold) (antibody, V domains shown)
VH: B1 VH
VL: B1 VL
